# According to patent US20250188133A1, “CHIMERIC BACTERIOCINS AND METHOD FOR THE CONTROL OF PSEUDOMONAS” (priority 2022, published 2025):
# B1: S5-PmnH (protein)
# chain: MSNDNEVPGSMVIVAQGPDDQYAYEVPPIDSAAVAGNMFGDLIQREIYLQKNIYYPVRSIFEQGTKEKKEINKKVSDQVDGLLKQITQGKREATRQERVDVMSAVLHKMESDLEGYKKTFTKGPFIDYEKQSSLSIYEAWVKIWEKNSWEERKKYPFQQLVRDELERAVAYYKQDSLSEAVKVLRQELNKQKALKEKEDLSQLERDYRTRKANLEMKVQSELDQAGSALPPLVSPTPEQWLERATRLVTQAIADKKQLQTTNNTLIKNSPTPLEKQKAIYNGELLVDEIASLQARLVKLNAETTRRRTEKELTPDEKAAYTDAVSFVSTANEQMLQKYGANLSKVAQDMQAEIAGKKVRSYAEAMATFEKISANPAMKLNALDTQAVVDALNALDKASFADNITRLGKAFGVVGKVVQAEAIREKTVSGFQTGDWKPLMLELEAMAVGTGAGILLATSMAFFFPVFASAAAGVVVVALMMAATAAYFDAAKVDEINNLILN
# modifications: Chimeric S5-PmnH
# Key:
# [1] = system: P. aeruginosa ATCC 27853; test: murine lung colonization and treatment (CD1 mice); format: in vivo; settings: 5 h post infection
# Protocol: CD1 male mice were supplied by Charles River (Margate, UK) and were specific pathogen free. Mice were 11 to 15 g on receipt at the facility and were allowed to acclimatize for at least 7 days.
# P. aeruginosa ATCC 27853 was recovered from long-term storage (−80° C.) and cultured on cystine-lactose-electrolyte-deficient (CLED) agar at 37° C. under aerobic conditions for approximately 16-24 h. 20 ml of Mueller Hinton broth was inoculated with a single well isolated colony and cultured overnight at 37° C. with shaking at 300 rpm65. The overnight broth was diluted 1:100 in Mueller Hinton broth and 100 ml was cultured in a baffle flask for ˜6 h at 37° C. with shaking at 300 rpm until the broth OD was ˜0.6 (˜mid-exponential phase). 20 ml of culture was centrifuged at 2465 g for 10 minutes and washed in PBS. The pellet was suspended in PBS and the OD600 adjusted to 0.67 (˜2.6×10^8 CFU/ml). The study inoculum was prepared from this by appropriate dilution with PBS. The inoculum concentration was confirmed by quantitative culture on Pseudomonas Selective Agar (PSA). The inoculum concentration for the study was 1.47×10^7 CFU/ml (5.87×10^5 CFU/mouse).
# Mice were infected under temporary inhaled 3% isoflurane anesthesia by intranasal (IN) instillation with 40 μl of the inoculum suspension split as 20 μl/nostril.
# 1 hour post infection 6 mice were sacrificed in order to evaluate the pre-treatment burden in lungs. Treatments were administered IN once at 1 h post infection (50 μl split to 25 μl/nares). Three treatment groups consisting of six mice each were administered S5-PmnH (2.5, 25 and 250 μg). The fourth group of mice (n=6) was administered 200 μg Tobramycin (40 mg/ml injection solution, Hospira UK Ltd, diluted 10 times). The study was terminated at 5 hours post infection for all animals. The clinical conditions and weights were assessed and animals were immediately euthanized using an overdose of pentobarbitone. Following confirmation of death, the lungs were excised and homogenized in ice cold sterile phosphate buffered saline using a Precellys bead beater. The homogenates were quantitatively cultured onto PSA agar and incubated at 37° C. for 24 hours before colonies were counted.
# [2] = system: P. aeruginosa ATCC 19660; test: MIC by agar dilution method; format: cell-based; settings: against ATCC 19660; CAA agar with 0.1 mg/ml BSA
# Protocol: (§1) Aliquots of melted CAA (1.5% agar) medium (final volume—25 ml) pre-wormed to 51° C. were supplemented with 0.1 mg/ml BSA and with appropriate amounts of pyocin stock solutions of different concentrations (concentrations lowered by a factor of 2). Aliquots were poured into Petri plates. P. aeruginosa cultures were grown from single colony in CAA medium at 37° C., 200 rpm until OD595=0.2 and diluted to 10^7 CFU/ml in CAA medium. 1 μL of bacteria suspension were applied in three replicates on each test plate. Plates were left to incubate in 37° C. overnight. The determined MIC is a concentration of pyocin, where no confluent bacterial growth is observed.
# [3] = system: P. aeruginosa PAO1; test: MIC by agar dilution method; format: cell-based; settings: against PAO1; CAA agar with 0.1 mg/ml BSA
# Protocol: as §1
molecule,measurement,setting,value
B1,reduction of lung burden vs vehicle,[1]; 2.5 μg/mouse IN once 1 h post infection,2.1 log10 CFU/g
same,reduction of burden below the level of stasis (pre-treatment),[1]; 2.5 μg/mouse IN once,0.58 log10 CFU/g
same,reduction of lung burden vs vehicle,[1]; 25 μg/mouse IN once 1 h post infection,2.31 log10 CFU/g
same,reduction of burden below the level of stasis (pre-treatment),[1]; 25 μg/mouse IN once,0.78 log10 CFU/g
same,reduction of lung burden vs vehicle,[1]; 250 μg/mouse IN once 1 h post infection,2.66 log10 CFU/g
same,reduction of burden below the level of stasis (pre-treatment),[1]; 250 μg/mouse IN once,1.13 log10 CFU/g
same,MIC determined by agar dilution method,[2],32 µg/mL
same,MIC determined by agar dilution method,[3],4 µg/mL
